# Columns and labels:
# [1] = target: D2 receptor peptide (D2R peptide) (human); test: ITC; 1 mM Ca2+/NCS-1 in the syringe titrated into 100 uM D2R peptide in the cell, 25 °C, 50 mM Tris-HCl, 50 mM NaCl, 5 mM CaCl2, pH 7.5; fitted to a sequential model and to a two-site nonsequential model with stoichiometry fixed at 1:2 NCS-1:peptide
# [2] = target: GRK1 peptide (N terminus of G-protein-coupled receptor kinase 1, residues 1-25); test: crystal structure; NCS-1 (1 mM) with 2-fold excess of GRK1 peptide; 0.12 M alcohols, 0.1 M HEPES/MOPS pH 7.5, 30% PEGMME 550 and PEG 20000, 20 °C; 2.30 Å
# [3] = target: D2 receptor peptide (D2R peptide) (human); test: crystal structure; NCS-1 (1 mM) with 2-fold excess of D2R peptide; 150 mM Tris-HCl pH 8.0, 8% ethylene glycol, 20% PEG 5000, 20 °C; 2.19 Å
# Sequence of Rattus norvegicus neuronal calcium sensor-1 (NCS-1), full-length, Ca2+-bound (P62168 whole entry): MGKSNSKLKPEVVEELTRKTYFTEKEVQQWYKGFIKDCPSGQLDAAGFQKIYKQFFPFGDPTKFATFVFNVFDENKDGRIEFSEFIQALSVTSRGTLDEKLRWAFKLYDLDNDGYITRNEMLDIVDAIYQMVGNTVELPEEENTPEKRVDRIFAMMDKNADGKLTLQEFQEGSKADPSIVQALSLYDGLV
# Sequence of GRK1 peptide (N terminus of G-protein-coupled receptor kinase 1, residues 1-25) (Q15835 1-25): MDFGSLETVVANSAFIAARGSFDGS
substance,measurement,setting,value
"Rattus norvegicus neuronal calcium sensor-1 (NCS-1), full-length, Ca2+-bound (from UniProt P62168 1-190) (natural protein)","Kd, sequential binding model, first value",[1],43 µM
same,"Kd, sequential binding model, second value",[1],58 µM
same,dH,[1],-2.06 kcal/mol
same,stoichiometry N,[2],1
same,stoichiometry N,[3],2
